# The nanobody polyreactivity screen of Harvey et al. (2022)
# Experiment: yeast display, Sf9 membrane polyspecificity reagent, FACS + sequencing; frameworks hold sequencing errors
# Summary of the method: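 After 36–48 hours of galactose induction, yeast (Saccharomyces cerevisiae BJ5465) displaying a synthetic nanobody library were stained at 4 °C for 1 hour with 10% biotinylated, detergent-solubilized Sf9 membrane reagent. Streptavidin microbeads enriched the stained cells before FACS sorting into low and high (top ~1%) gates on anti-HA and streptavidin fluorescence. Each clone's polyreactivity label reflects its gate of origin.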
row,Sequence,polyreactivity (PSR sort gate)
1,QVQLVESGGGLVQAGGSLRLSCAASGRTFPYKAMGWYRQAPGKERELVAVISSGGGRTYYADSVKGRFTISRDNAKNTVYLQMNSLKPEDTAVYYCNKGGYAIRYDYYWGQGTQVTVSS,high polyreactivity
2,QVQLVESGGGLVQAGGSLRLSCAASGRTSGGNAMGWYRQAPGKERELVAAISLRGGGTYYADSVKGRFTISRDNAKNTVYLQMNSLIPEDTAVFYCAAEFTYYGARWGYLGDLDYWGQGTQVTVSS,high polyreactivity
3,QVQLVESGGGLVQAGGSLRLSCAASGIIFSSYAMGWYRQAPGKERELVAAISRRSGSTYYADSVKGRFTISRDNAKNTVYLQMNSLKPEDTAVYYCNKLPGTPRSLATGDYWGQGTQVTVSS,high polyreactivity
4,QVQLVESGGGLVQAGGSLRLSCAASGFIFYRNTMGWYRQAPGKEREFVAAIRWRGGSTYYADSVKGRFTISRDNAKNTVYLQMNSLKPEDTAVYYCAAGTPWSVEGSYVTYPWNRYYYWGQGTQVTVSS,high polyreactivity
5,QVQLVESGGGLVQAGGSLRLSCAASGSTFGRYAKGWYRQAPGKERQLVAAISSSGVTTYYADSVKGRFTISRDNAKNSVYLQINSLKPEDTAVYYCSQTYKYHRWITKYGYWGQGTQVTVSS,high polyreactivity
6,QVQLVESGGGLVQAGGSLRLSCAASGSIFRLNAMGWYRQAPGKERELVAAISRNTGRTYYADSVKGRFTISRDNAKNTVYLQMNSLKPEDTAVYYCAADRSPTGYVRVYYWGQGPQVTVSS,high polyreactivity
7,QVQLVESGGGLVQAGGSLRLSCAASGSTLVGYVMGWYRQAPGKERELVAAITTVGSTYYADSVKGRFTISRDNAKNTVYLQMNSLKPEDTAVYYCNAVRAYVDLRTGHFRGDYWGQGTQVTVSS,low polyreactivity
8,QVHLVESGGGLVQAGGSLRLSCAASGLTFQYYAMGWYRQAPGKQRELVAAISSRGGRTYYADSVKGRFTISRDNAKNTVYLQMNSLKPEDTAVYYCAAEWWAPDRVTRGRIYGYWGQGTQVTVSS,high polyreactivity
9,QVQLVESGGVLVQAGGSLRLSSAAYGFIFAKYAMVWYIQAHGKERELVAGISESCGSTYYADSVKGRFTISRDNAKNTVYLQLNSLKPEDTAVYYCNADDTVYFIKAGDYWGQGTQGTVSS,high polyreactivity
10,QVQLVESGGGLDQAGGSLRLSCAASGLTFRYYAMGWYRQAPGKERELVAGISGRGGSTYYADSVKGRFTISRDNAKNTVYLQMNSLKPEDTAVYYCAADYSYGRFRRFDYWGQGTQVNVSS,high polyreactivity
11,QVQLVESGGGLVQAGGSLRLSCAASGSTFYAYAMGWYRQAPGKERELVAAIRISGTSTYYADSVKGRFTISRDNAKNTVYLQMNSLKPEDSAVYYCNTLATYVAHNDYWGQGTQVTVSS,high polyreactivity
12,QVQLVESGGGLVQAGGSLRLTCAASGLIFVAYAMGWYRQAPGKERELVAAISWSGGDTYYADSVKGRFTISRDNAKNTVYLQMNSLKPEDTAVYYCAADYYPYGYDSWGQGTQVTVSS,low polyreactivity
13,QVQLVESGGGLVQAGGSLRLSCAASGSIFASYAMGWYRQAPGKERELVAAISQNGSRTYYAVSVKGRFTISRDNAKYTVYLQMNSLKPEDTAVYYCAVLSRQYFRYGYDYWGQGTQVTVSS,high polyreactivity
14,QVQLVESGGGLVQAGGSLRLTCAASGNIFGIYTMGWYRQAPGKEREFFAVISLSGTSTYYADSVKGRFTISRDNAKNTVYLQMKSLKPEDTAVYYCNARTPHNKGRRRAYDYWGQATQVTVSS,high polyreactivity
15,QVQLVQSGGGLVQAGGSLRLSYAASGRIFSPNAMGWYRQAPGKERELVAAISYRGANTYYADSVKGRFTISRDNAKNTVDLQMHSLKPEDTAVYYCATRSTHYWGQGTQVTVSS,high polyreactivity
16,QVQLVESVGGLVQAGGSLRLSCAASGRTFYTNAMGWYRQAPGKERELVAAITRGTSTSYADSVKGRFTISRDNAKNTVYLQMNSLKPEDTAVYYCAARGTQYSPSKSWFYYWGQGTQVTVSS,high polyreactivity
17,QVQLEESGGGLVQAGGSLRLSCAASGSTFPPYEMGWYRQAPGKERELVAAISGSGGSTNYADSVKGRFTISRDHAKNTVYLQMNSLKPEDNAVYRDYWGQGTQVTVSS,low polyreactivity
18,QVQLVQTGGGVVQAGGSLRLSCAASGRIFNSYPMGWYRQAPGKERELVASINRYGGSTYYADSVKGRFTISRDNAKNTVYLQMYSLNPEDTSVYYCAARGYTSFNTGYGYWGQGTQVSVSS,high polyreactivity
19,QVQLVESGGGLVQAGGSLRLICAASGITFGCNAMGWYRQAPGKEREFVAAITFSDGSTRYADSVKGRFTISRDNAKNTVYLQMNSLKPEDTAVYYCAADTWSDKYDYWGQGTQVTVSS,low polyreactivity
20,QVQLVESGGGLVQAGGSLRLSCAASGITFSYNAMGWYRQAPGKERELVAAISSNSDSTYYADSVKGRFTISRDYAKNTVYLQMNRLKPEDTAVYYCAADTPDAPDYSGFYYWGQGTQVTVSS,low polyreactivity
21,QVQLVESGGGLVQAGGSLRLSCAASGFIFAYYAMGWYRQAPGKERELVAGINRTGSTNYADSVKGRFSISRDNAKNTVYLQMNSLKPEDTAVYYCAARGYRSGGGYNYWGQGTQVTVSS,high polyreactivity
22,QVQLVESGGGLVQAGGSLRLSCAASGRTFLTYAMGWYRQAPGKERELVAAISSSGVRTYYADSVKGRFTISRDNAKNTVYLQMNSLKPEDTAVYYCAAVGTGSSLRYDYWGQGSQVTVSS,high polyreactivity

row,Sequence,polyreactivity (PSR sort gate)
1,QVQLVESGGGLVQAGGSLRLSCAASGFTFGSYAMGWYRQAPGKERELVAAISSRGGSTYYADSVKGRFTISRDNAKNTVYLQMNSLKPEDTAVYYCNAGYGYIKQYPDYQSKYDYWGQGTQVTVSS,low polyreactivity
2,QVQLVESGGGLVQAGGSLRLSCAASGRIFYVYAMGWYRQAPGKERELVPAITSSGGSTYYADSVKGRFTISRDTAKNTVYLQMNSLKPEDTAVYYCAARERAGYSRIRYNYWGQGTQVTVSS,high polyreactivity
3,QVQLVESGGGLVQAGGSLRLSCAASGSTFWYYTMGSYRQAPGKERELVAAIRYSGTRTYYADSVKGRFTISRDNAKTTVYLQMNSLKPEDTAVYYCARYRTPGYQAYLYDYWGQGTQVTVSS,low polyreactivity
4,QVQLVESGGGLVQAGGSLRLICAASGFTLDWYVMGWYRQAPGKERELVAAISSSGGRTYYADSVKGRFTISRDNEKNTVYLQMNSLKPEDPAVYYCAARNKYGGYPYGYDYWGQGTQVTVSS,high polyreactivity
5,QVQLVESGGGLVQAGGSLRLSCAASGFTFRKNAMGWYRQAPGKERELVAAISRRGGRTYYADSVKGRFTISRDNAKNTVYLQMNSLKPEDSAVYYCNDDEYGGSSGRKGRYNYWGQGTQVTVSS,low polyreactivity
6,QVQLVESGGGLVQAGGSLRLSCAASGRTFYHYAMGWYRQAPGKERELVAAITYRGGNTYYADSVKGRFTISRDNAKNTVYLQMNSLKPEDTAVYFCAKQGVRRHYGYDYWGQGTQVTVSS,high polyreactivity
7,QVQLVESGGGLVQAGGSLRLSCAASGITFYDYAMGWYRQAPGKERELVAAISFSGSRTYYADSVKGRFTISRDNAKNTVYLQMNSLKPEDTAVYYCAASPSTPNKYGSWGQGTQVTVSS,high polyreactivity
8,QVQLVESGGGLVQAGGSLRLSCAASGRIFPTNAMGWYRQAPGKERVFVAAITWGGGSTYYAVSVKGRFTISRDNAKNTVYLQMNSLKPEDTAVYYCAATGHIVFFRSYDYGYWGQGTQVTVSS,low polyreactivity
9,QVQLQESGGGLVQVGGSLRLSCAASGTIFIYGFLGWNRQAPGKERELVASINLGGITNYADSVKGRFTISRDNATNTVYLQMISLKPEDTAVYYCAAYVVTGQNYGYWGQGTQVTVSS,low polyreactivity
10,QVQLVESGGGLVQAGGSLRLSCAASGFTFSYYARGWYRQAPGKERELVAAISINGGRTYYADSVKGRFTISRDNAKNTVYLQMNSLKPEDTAVYYCNAVSYAYTVRMYYWGQVTQVTVSS,high polyreactivity
11,QVQLLESGGGLVQAGGSLRLSCAASGSPFYYYARGWYRQAPGKERELVARITYGGSRTYYADSVKGRFTISRDNAKYTVYLQMNSLKPEDTAVYYCNAGRVLYGYYLYDYWGQGTQLTVSS,high polyreactivity
12,QFQLVESGGGLVQAGGSLRLSCAASGSIITPYAMGWYRPAPGKERELVAAISGRGGSTYYADSVKGRFTISRDNAKNTVYLQMNSLKPEDTAVYYCAARQYFRWYGWSMDYWGQGTQVTVSS,high polyreactivity
13,QVQLVESGGGLVQAGGSLRLSCAASGSIFDPYAMGWYRQAPGKERELVAGISFSGGRTYYADSVKGRFTISRDNAKNTVYLQMNSLKPEDTAVYYCNKLLTQGAYPYYFWGQGTQVTVSS,high polyreactivity
14,QVQLVESVGGLVQAGGSLRLSSAASGFTIVGNTMGWSRQAPGKERELVASINTNGGSTYYADSVKGRFTISRDNAKNTVYLQINSLKPEDTAVYYCNARSWYPYDYWGQGTQVTVSS,low polyreactivity
15,QVQLVESGGGLVQAGGSLRLSCAASGSIFYGYAMGWYRQAPGKERELVASITSSGGSTYYADSVKGRFTISRDNAKNTVYLQMNSLKPEDTAVYYCNADGRPDWYVVRGGFEYWGQGTQVTVSS,low polyreactivity
16,QVQLVESGGGLVQAGGSLRLSCAASGSIFYSNVMGWYRLAPGKERELVAAITRGGGTNYADSVKGRFTISRDNAKNTVYLQMNSLKPEDTAVYYCNRDPQKYRWIPRYDYWGQGTQVTVSS,low polyreactivity
17,QVQLVESGGGLDQAGGSLRLTWAASGSIFKFYAMGWYRQAPGKERDMVAAISQSGGRTYYADSVKGRFTISRDNAKNSVYLQMNSLKPEDTAVYYCAKSVFPVYGRPSNLWFNYWGQGTQVTVSS,high polyreactivity
18,QVQLVESGGGLVQAGGSLRLSCAASGFIFNRYAMGRYRQAPGKERELVAAISSGGNTHYADSVKWRFTISRDNAKNTVLLQMNSLKPEDTAVYYCAKAFRHSTFFAPYDYWGQGSQVTVSS,low polyreactivity
19,QVQLEESGAGLVQAGGSLRLCCAASGNTFSSNAMGLYTQAPGKEMELVAGITKSGGRTYYADSVKGRFTISRDNAQYTVYLHMNSLKPEDSAVFYCNRRAGPFSIQYYYWGQVTQVTVSS,high polyreactivity
20,QVQLVESGGGLVQAGGSLRLSCAASGSIFTWYAMGWYRQAPGKERELVARINVSAGITYYADSVKGRFTISRDNAKNTVYLQMNSLKPEDTAVYYCAATGWRRPKHNYWGQGTQVTVSS,low polyreactivity
21,QVQLVESGAGLVQAGGSLRLSCAASGITFASYGMGWYRQAPGKERELVAAISQRGGRTYYADSVKGRFTISRDNAKNTVYLQMNRLKPEDTAVYYCAARTYTITGRSPQYLNAYGYWGQGTQVTVSS,high polyreactivity
